Measurements taken from patent US5780289.

Molecular target: E. acervulina merozoite antigen (whole merozoites coated on the plate, or sonicated merozoites)

**Q.** “peripheral blood leucocytes of control chickens (cells without a defined receptor)” was tested. Which 3H-thymidine incorporation in Dcpm did it give?
**A.** 14 Dcpm

**Q.** How did the 3H-thymidine incorporation in Dcpm turn out when “peripheral blood leucocytes of chickens immunised with purified Eam20 (cells without a defined receptor)” was run?
**A.** 922 Dcpm

**Q.** For “peripheral blood leucocytes of chickens immunised with purified Eam200 (cells without a defined receptor)”, which 3H-thymidine incorporation in Dcpm is on record?
**A.** 692 Dcpm

**Q.** With “peripheral blood leucocytes of chickens immunised with purified Eam100 (cells without a defined receptor)” as the substance, how does the 3H-thymidine incorporation in Dcpm read?
**A.** 1190 Dcpm

**Q.** For “peripheral blood leucocytes of chickens immunised with purified Eam45 (cells without a defined receptor)”, which 3H-thymidine incorporation in Dcpm is on record?
**A.** 716 Dcpm
